B2: PfPdx1 DKK (D26A/K83A/K151A) triple mutant (enzyme)
chain: MENHKDDAVLLKHGWCEMLKGGVIMAVKSVEQAKIAEEAGAIGVMVLENIPSELRNKEGVARSVDPSKVEEIKKCVSINVLAAVRIGHFVEAQILEELKIDMIDESEVLTIADEMHHIDKHKFKTPFVCGCTNLGEALRRISEGASMIRTAGEAGTGNIIEAIKHIRTVNNEIKYLCSLSDSEVYHFAKKINAPIDLVLLTKKLKRLPVVNFAAGGVATPADAAMCMQLGMDGVFVGSGIFESENPRKMAASIVSAVSNFNNPKILLDVSMNLGKAMCGSTRVSDKWKNKNEEHTKFLTPQ
notes: Pdx1 of Plasmodium falciparum in pASK-IBA3, triple mutant; Hexamer without additive; about half dodecamer with 10 mM glutamine; also called DKK to AAA (D26/K83/K151); DKK mutant; source: E. coli BLR (DE3); purified (Strep-Tactin) for light scattering; cell homogenate for co-purification
B3: PfPdx1 K151A (enzyme)
chain: MENHKDDAVLLKHGWCEMLKGGVIMDVKSVEQAKIAEEAGAIGVMVLENIPSELRNKEGVARSVDPSKVEEIKKCVSINVLAKVRIGHFVEAQILEELKIDMIDESEVLTIADEMHHIDKHKFKTPFVCGCTNLGEALRRISEGASMIRTAGEAGTGNIIEAIKHIRTVNNEIKYLCSLSDSEVYHFAKKINAPIDLVLLTKKLKRLPVVNFAAGGVATPADAAMCMQLGMDGVFVGSGIFESENPRKMAASIVSAVSNFNNPKILLDVSMNLGKAMCGSTRVSDKWKNKNEEHTKFLTPQ
notes: Pdx1 of Plasmodium falciparum in pASK-IBA3, point mutant; source: E. coli BLR (DE3); purified (Strep-Tactin) for light scattering; cell homogenate for co-purification

Tests used:
[1] = molecular target: the molecule itself; assay: SEC-MALS; 100 ug purified Strep-tagged PfPdx1 on Superdex 200 10/30 with static light scattering (miniDAWN Tristar); 100 mM Tris-HCl pH 8.0, 150 mM NaCl, no amino acid added
[2] = molecular target: the molecule itself; assay: SEC-MALS; as a2, with 10 mM glutamine in the elution buffer
[3] = molecular target: PfPdx1 D26A (P. falciparum, UniProt C6KT50 1-301, D26A); assay: cell-based or functional assay
[4] = molecular target: B3; assay: cell-based or functional assay
[5] = molecular target: PfPdx1 K83A (P. falciparum, UniProt C6KT50 1-301, K83A); assay: cell-based or functional assay
[6] = molecular target: B2; assay: cell-based or functional assay
[7] = molecular target: PfPdx1 ERR (E136A/R139A/R140A) triple mutant (P. falciparum, UniProt C6KT50 1-301, E136 to alanine | R139 to alanine | R140 to alanine); assay: cell-based or functional assay

B1: PfPdx1 wild-type (Plasmodium falciparum Pdx1, Strep-tagged) (enzyme, P. falciparum, UniProt C6KT50 1-301, looked up)
chain: MENHKDDAVLLKHGWCEMLKGGVIMDVKSVEQAKIAEEAGAIGVMVLENIPSELRNKEGVARSVDPSKVEEIKKCVSINVLAKVRIGHFVEAQILEELKIDMIDESEVLTIADEMHHIDKHKFKTPFVCGCTNLGEALRRISEGASMIRTKGEAGTGNIIEAIKHIRTVNNEIKYLCSLSDSEVYHFAKKINAPIDLVLLTKKLKRLPVVNFAAGGVATPADAAMCMQLGMDGVFVGSGIFESENPRKMAASIVSAVSNFNNPKILLDVSMNLGKAMCGSTRVSDKWKNKNEEHTKFLTPQ
notes: molecular mass used for light scattering 34.2 kDa; also called PfPdx1 WT; plasmodial Pdx1; source: E. coli BLR (DE3); purified (Strep-Tactin) for light scattering; cell homogenate for co-purification; copies: 12
In the case of B1, the “stoichiometry N” value [1] is reported as 12.

For B2, the “stoichiometry N” value [2] was 12 and the “stoichiometry N” value [1] was 6.

For B3, the “stoichiometry N” value [1] was 6.

B4: PfPdx2HIS wild-type (Plasmodium falciparum Pdx2 with C-terminal 6x His-tag) (enzyme)
chain: MSEITIGVLSLQGDFEPHINHFIKLQIPSLNIIQVRNVHDLGLCDGLVIPGGESTTVRRCCAYENDTLYNALVHFIHVLKKPIWGTCAGCILLSKNVENIKLYSNFGNKFSFGGLDITICRNFYGSQNDSFICSLNIISDSSAFKKDLTAACIRAPYIREILSDEVKVLATFSHESYGPNIIAAVEQNNCLGTVFHPELLPHTAFQQYFYEKVKNYKYS
In the case of B4, the “glutaminase activity of PfPdx2 mixed equimolar with the PfPdx1 variant” value (from here on “glutaminase activity”) [3] is reported as 285 mU mg^−1, the “glutaminase activity” value [4] is reported as 251 mU mg^−1 and the “glutaminase activity” value [5] is reported as 291 mU mg^−1. The “glutaminase activity” value [6] was 274 mU mg^−1 and the “glutaminase activity” value [7] was 286 mU mg^−1.

— PMC2266796, “The Assembly of the Plasmodial PLP Synthase Complex Follows a Defined Course” (PLoS ONE, 2008)
